Source: article PMC13083842 (Communications Biology, 2026)

Assays:
[1] = molecular target: T1, interleukin-6 (IL-6) (human, UniProt P05231); assay: SPR; IL-6 amine-coupled on a CM5 chip (Biacore T200); analytes in multi-cycle kinetics, 0.39 to 100 nM, 30 µL/min, 180 s association, 1200 s dissociation, HBS-N + 10 mM CaCl2; global fit, 1:1 model; where koff was below the detection limit KD was estimated from kon and the theoretical maximum koff; details: both partners purified
T1 construct: interleukin-6, human; A biotinylated IL-6 was used in the cell uptake assays; for SPR and ELISA the IL-6 was amine-coupled or coated
T1 sequence (P05231 30-212): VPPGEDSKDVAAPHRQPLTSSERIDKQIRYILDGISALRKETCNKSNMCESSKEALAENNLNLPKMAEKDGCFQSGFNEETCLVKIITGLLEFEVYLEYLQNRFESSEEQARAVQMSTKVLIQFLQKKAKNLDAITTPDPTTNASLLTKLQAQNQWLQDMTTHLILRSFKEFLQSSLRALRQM

[2] = molecular target: T2, soluble IL-6 receptor (sIL-6R) (human (from the printed accession …, UniProt P08887)); assay: SPR; IL-6R amine-coupled on a CM5 chip (Biacore T200); tocilizumab variants as analytes, multi-cycle kinetics, 0.39 to 100 nM; global fit, 1:1 model; details: both partners purified
T2 construct: interleukin-6 receptor (IL-6R), soluble variant, residues 20-355, UniProt P08887; Two versions were made: 1; C-terminal His9-Tag; 2; C-terminal Twin-Strep-Tag, 3xGS-Linker and TEV cleavage site; Only the ELISA on sASGPR (anti-His-HRP detection) tells that the His9 version was used; Strongly and heterogeneously glycosylated; also called wild-type sIL-6R; unmodified sIL-6R; source: Expi293F, …

Row | Kd [1] [nM] | koff [1] [s⁻¹] | kon [1] [M⁻¹ s⁻¹] | fold weaker affinity than wildtype tocilizumab [2] [fold] | Binder
1 | < 0.045 | < 1e-05 | 445000 | – | siltuximab (antibody, V domains shown, heavy chain of siltuximab, chimeric (human-murine) anti-IL-6 antibody; light chain of siltuximab; Full-length IgG; also called wildtype siltuximab; unmodified siltuximab; source: HEK293T, transfected, purified from supernatant (Protein A, SEC); copies: 2 + 2) VH: EVQLVESGGKLLKPGGSLKLSCAASGFTFSSFAMSWFRQSPEKRLEWVAEISSGGSYTYYPDTVTGRFTISRDNAKNTLYLEMSSLRSEDTAMYYCARGLWGYYALDYWGQGTSVTVSS VL: QIVLIQSPAIMSASPGEKVTMTCSASSSVSYMYWYQQKPGSSPRLLIYDTSNLASGVPVRFSGSGSGTSYSLTISRMEAEDAATYYCQQWSGYPYTFGGGTKLEIK
2 | < 0.045 | < 1e-05 | – | – | siltuximab-TGN 1:1 (antibody, V domains shown, as the heavy chain of m1; as the light chain of m1; Heterogeneous conjugate; See m1 for the DrugBank ids; also called TGN-modified siltuximab variant 1:1; source: HEK293T, transfected, purified (Protein A, SEC), then conjugated with Tris-GalNAc-PEG5-sulfo-NHS ester at 1:1; copies: 2 + 2) VH: EVQLVESGGKLLKPGGSLKLSCAASGFTFSSFAMSWFRQSPEKRLEWVAEISSGGSYTYYPDTVTGRFTISRDNAKNTLYLEMSSLRSEDTAMYYCARGLWGYYALDYWGQGTSVTVSS VL: QIVLIQSPAIMSASPGEKVTMTCSASSSVSYMYWYQQKPGSSPRLLIYDTSNLASGVPVRFSGSGSGTSYSLTISRMEAEDAATYYCQQWSGYPYTFGGGTKLEIK
3 | – | – | – | ≤ 5 | tocilizumab-TGN 1:25 (antibody, V domains shown, as the heavy chain of m6; as the light chain of m6; Heterogeneous conjugate; See m6 for the DrugBank ids; also called the 1:25 variant; source: HEK293T, transfected, purified (Protein A, SEC), then conjugated with Tris-GalNAc-PEG5-sulfo-NHS ester at 1:25) VH: QVQLQESGPGLVRPSQTLSLTCTVSGYSITSDHAWSWVRQPPGRGLEWIGYISYSGITTYNPSLKSRVTMLRDTSKNQFSLRLSSVTAADTAVYYCARSLARTTAMDYWGQGSLVTVSS VL: DIQMTQSPSSLSASVGDRVTITCRASQDISSYLNWYQQKPGKAPKLLIYYTSRLHSGVPSRFSGSGSGTDFTFTISSLQPEDIATYYCQQGNTLPYTFGQGTKVEIK

Further lines, the binder ahead of its results:

Row | Binder | Kd [1] [nM] | koff [1] [s⁻¹] | kon [1] [M⁻¹ s⁻¹] | fold weaker affinity than wildtype tocilizumab [2] [fold]
4 | siltuximab-TGN 1:5 (antibody, V domains shown, as the heavy chain of m1; as the light chain of m1; Heterogeneous conjugate; See m1 for the DrugBank ids; also called TGN-modified siltuximab variant 1:5; source: HEK293T, transfected, purified (Protein A, SEC), then conjugated with Tris-GalNAc-PEG5-sulfo-NHS ester at 1:5; copies: 2 + 2) VH: EVQLVESGGKLLKPGGSLKLSCAASGFTFSSFAMSWFRQSPEKRLEWVAEISSGGSYTYYPDTVTGRFTISRDNAKNTLYLEMSSLRSEDTAMYYCARGLWGYYALDYWGQGTSVTVSS VL: QIVLIQSPAIMSASPGEKVTMTCSASSSVSYMYWYQQKPGSSPRLLIYDTSNLASGVPVRFSGSGSGTSYSLTISRMEAEDAATYYCQQWSGYPYTFGGGTKLEIK | < 0.045 | < 1e-05 | – | –
5 | siltuximab-TGN 1:25 (antibody, V domains shown, as the heavy chain of m1; as the light chain of m1; Heterogeneous conjugate; See m1 for the DrugBank ids; also called the 1:25 variant; source: HEK293T, transfected, purified (Protein A, SEC), then conjugated with Tris-GalNAc-PEG5-sulfo-NHS ester at 1:25; copies: 2 + 2) VH: EVQLVESGGKLLKPGGSLKLSCAASGFTFSSFAMSWFRQSPEKRLEWVAEISSGGSYTYYPDTVTGRFTISRDNAKNTLYLEMSSLRSEDTAMYYCARGLWGYYALDYWGQGTSVTVSS VL: QIVLIQSPAIMSASPGEKVTMTCSASSSVSYMYWYQQKPGSSPRLLIYDTSNLASGVPVRFSGSGSGTSYSLTISRMEAEDAATYYCQQWSGYPYTFGGGTKLEIK | < 0.045 | < 1e-05 | 221000 | –
6 | siltuximab-TGN 1:10 (antibody, V domains shown, as the heavy chain of m1; as the light chain of m1; Heterogeneous conjugate; See m1 for the DrugBank ids; also called TGN-modified siltuximab variant 1:10; source: HEK293T, transfected, purified (Protein A, SEC), then conjugated with Tris-GalNAc-PEG5-sulfo-NHS ester at 1:10; copies: 2 + 2) VH: EVQLVESGGKLLKPGGSLKLSCAASGFTFSSFAMSWFRQSPEKRLEWVAEISSGGSYTYYPDTVTGRFTISRDNAKNTLYLEMSSLRSEDTAMYYCARGLWGYYALDYWGQGTSVTVSS VL: QIVLIQSPAIMSASPGEKVTMTCSASSSVSYMYWYQQKPGSSPRLLIYDTSNLASGVPVRFSGSGSGTSYSLTISRMEAEDAATYYCQQWSGYPYTFGGGTKLEIK | < 0.045 | < 1e-05 | – | –
